Measured values taken from paper PMC8786865.

Target: SARS-CoV-2 spike protein receptor-binding domain (RBD) (SARS-CoV-2) (UniProt P0DTC2)
Assay: SPR

## CR3022
  Kd: 11 nM
